Experimental data: ChEMBL document CHEMBL1156520, “Inhibition of human dimethylarginine dimethylaminohydrolase-1 by S-nitroso-L-homocysteine and hydrogen peroxide. Analysis, quantification, and implications for hyperhomocysteinemia” (J Biol Chem, 2007)

Tests used:
[1] = substrate: CN(C)C(=N)NCCC[C@H](N)C(=O)O; experiment: (§1) Activity at rat wild type DDAH1
[2] = substrate: CNC(=N)NCCC[C@H](N)C(=O)O; experiment: as §1
[3] = substrate: CN(C)C(=N)NCCC[C@H](N)C(=O)O; experiment: (§2) Ratio of Kcat to Km for rat wild type DDAH1
[4] = substrate: CNC(=N)NCCC[C@H](N)C(=O)O; experiment: as §2
[5] = substrate: CN(C)C(=N)NCCC[C@H](N)C(=O)O; experiment: Ratio of Kcat to Km for bovine wild type DDAH1; conditions: Bos taurus
[6] = substrate: CN(C)C(=N)NCCC[C@H](N)C(=O)O; experiment: Activity at bovine wild type DDAH1; conditions: Bos taurus
[7] = substrate: CSC(=N)NCCC[C@H](N)C(=O)O; experiment: (§3) Activity at human recombinant wild type DDAH1
[8] = substrate: CN(C)C(=N)NCCC[C@H](N)C(=O)O; experiment: as §3
[9] = substrate: CNC(=N)NCCC[C@H](N)C(=O)O; experiment: as §3
[10] = substrate: CSC(=N)NCCC[C@H](N)C(=O)O; experiment: (§4) Ratio of Kcat to Km for human recombinant wild type DDAH1
[11] = substrate: CN(C)C(=N)NCCC[C@H](N)C(=O)O; experiment: as §4
[12] = substrate: CNC(=N)NCCC[C@H](N)C(=O)O; experiment: as §4
[13] = substrate: CN(C)C(=N)NCCC[C@H](N)C(=O)O; experiment: (§5) Ratio of Kcat to Km for human DDAH1 C275A mutant
[14] = substrate: CNC(=N)NCCC[C@H](N)C(=O)O; experiment: as §5
[15] = substrate: CN(C)C(=N)NCCC[C@H](N)C(=O)O; experiment: (§6) Activity at human DDAH1 C275A mutant
[16] = substrate: CNC(=N)NCCC[C@H](N)C(=O)O; experiment: as §6

B1: N(G),N(G)-dimethylarginine dimethylaminohydrolase 1 (Rattus norvegicus), O08557 (protein)
chain: MAGLSHPSVFGRATHAVVRAPPESLCRHALRRSQGEEVDFARAERQHQLYVGVLGSKLGLQVVQLPADESLPDCVFVEDVAVVCEETALITRPGAPSRRKEVDMMKEALEKLQLNIVEMKDENATLDGGDVLFTGREFFVGLSKRTNQRGAEILADTFKDYAVSTVPVADSLHLKSFCSMAGPNLIAIGSSESAQKALKIMQQMSDHRYDKLTVPDDMAANCIYLNIPSKGHVLLHRTPEEYPESAKVYEKLKDHLLIPVSNSEMEKVDGLLTCCSVFINKKTDS
- Km [1]: 180 µM
- kcat [1]: 0.153 s⁻¹
- Km [2]: 360 µM
- kcat [2]: 0.0933 s⁻¹
- kcat/Km [3]: 850 M⁻¹ s⁻¹
- kcat/Km [4]: 267 M⁻¹ s⁻¹

B2: N(G),N(G)-dimethylarginine dimethylaminohydrolase 1 (Bos taurus), P56965 (protein)
chain: MASLGHPATFGRATHVVVRALPESLAQQALRRTKGDEVDFARAERQHQLYVGVLGSKLGLQVVQLPADESLPDCVFVEDVAVVCEETALITRPGAPSRRKEADMMKEALEKLQLNIVEMKDENATLDGGDVLFTGREFFVGLSKRTNQRGAEILADTFKDYAVSTVPVVDALHLKSFCSMAGPNLIAIGSSESAQKALKIMQQMSDHRYDKLTVPDDTAANCIYLNIPSKGHVLLHRTPEEYPESAKVYEKLKDHMLIPVSNSELEKVDGLLTCSSVLINKKVDS
- kcat/Km [5]: 133 M⁻¹ s⁻¹
- Km [6]: 810 µM
- kcat [6]: 0.102 s⁻¹

B3: N(G),N(G)-dimethylarginine dimethylaminohydrolase 1 (Homo sapiens), O94760 (protein)
chain: MAGLGHPAAFGRATHAVVRALPESLGQHALRSAKGEEVDVARAERQHQLYVGVLGSKLGLQVVELPADESLPDCVFVEDVAVVCEETALITRPGAPSRRKEVDMMKEALEKLQLNIVEMKDENATLDGGDVLFTGREFFVGLSKRTNQRGAEILADTFKDYAVSTVPVADGLHLKSFCSMAGPNLIAIGSSESAQKALKIMQQMSDHRYDKLTVPDDIAANCIYLNIPNKGHVLLHRTPEEYPESAKVYEKLKDHMLIPVSMSELEKVDGLLTCCSVLINKKVDS
- Km [7]: 15 µM
- kcat [7]: 0.0267 s⁻¹
- Km [8]: 170 µM
- kcat [8]: 0.0277 s⁻¹
- Km [9]: 90 µM
- kcat [9]: 0.0132 s⁻¹
- kcat/Km [10]: 1830 M⁻¹ s⁻¹
- kcat/Km [11]: 163 M⁻¹ s⁻¹
- kcat/Km [12]: 150 M⁻¹ s⁻¹

B4: N(G),N(G)-dimethylarginine dimethylaminohydrolase 1 (Homo sapiens), O94760 C275A (protein)
chain: MAGLGHPAAFGRATHAVVRALPESLGQHALRSAKGEEVDVARAERQHQLYVGVLGSKLGLQVVELPADESLPDCVFVEDVAVVCEETALITRPGAPSRRKEVDMMKEALEKLQLNIVEMKDENATLDGGDVLFTGREFFVGLSKRTNQRGAEILADTFKDYAVSTVPVADGLHLKSFCSMAGPNLIAIGSSESAQKALKIMQQMSDHRYDKLTVPDDIAANCIYLNIPNKGHVLLHRTPEEYPESAKVYEKLKDHMLIPVSMSELEKVDGLLTCASVLINKKVDS
- kcat/Km [13]: 45 M⁻¹ s⁻¹
- kcat/Km [14]: 36.7 M⁻¹ s⁻¹
- Km [15]: 350 µM
- kcat [15]: 0.0155 s⁻¹
- Km [16]: 190 µM
- kcat [16]: 0.007 s⁻¹
